{
  "source": "patent US8518892B2",
  "about": "“Methods to treat symptoms of pathophysiology related to body mass” (Board of Supervisors of Louisiana State University and …, priority 2005, dated 2013)",
  "molecules": {"B1": {"name": "Enho 1: human Enho 1, a 76 amino acid peptide having the sequence SEQ ID NO: 14 (peptide, listed as Homo sapiens)", "chain": "MGAAISQGALIAIVCNGLVGFLLLLLWVILCWACHSRSADVDSLSESSPNSSPGPCPEKAPPPQKPSHEGSYLLQP"}},
  "system": "DIO C57BL/6J mice",
  "assay": "Enho 1 ip for 7 days in DIO C57BL/6J mice (Examples 23-25)",
  "type": "in vivo, mouse",
  "protocol": "(§1) The effect of Enho-1 upon weight loss was tested over the course of 7 days using DIO C57BL/6J mice (Charles River Laboratories). The mice were fed a high fat diet (Research Diets 12492) for 10 weeks prior to the start of the experiment, which was begun when the mice were 15-16 weeks of age. Control mice received vehicle only while test mice each received doses of either 90 nmol/kg/d, 900 nmol/kg/d or 9000 nmol/kg/d. The injections were given as 3 ip injections at 0800, 1200 and 1600 h for 7 days. On day 8, the mice were given the 0800 h injection and were sacrificed 1-3 h later.\nas §1, with “insulin and glucose” for “weight loss”, “later at which time blood samples were collected and levels of insulin and glucose determined.” for “later.”\nThe HOMA-IR for each treatment was calculated using the following formula: ((glucose mg/dL÷18)×(insulin ng/ml×25.05))÷22.5\nas §1, with “levels of blood lipids” for “weight loss”, “later at which time blood samples were collected and levels of trigylcerides determined. Triglycerides were measured using a Triglyceride L-Type TG H kit (Wako Diagnostics).” for “later.”",
  "key": {"[1]": {"conditions": "90 nmol/kg/d ip, listed as Enho-1"}, "[2]": {"conditions": "900 nmol/kg/d ip, listed as Enho-1"}, "[3]": {"conditions": "9000 nmol/kg/d ip, listed as Enho-1"}},
  "data": [
    {"molecule": "B1", "values": [
      {"measurement": "Blood glucose", "setting": "90 nmol/kg/d ip", "result": 182, "unit": "mg/dL"},
      {"measurement": "Delta body weight", "setting": "90 nmol/kg/d ip", "result": 6.6, "unit": "%"},
      {"measurement": "HOMA-IR", "setting": "90 nmol/kg/d ip", "result": 15},
      {"measurement": "HOMA-IR decrease as compared to the control group", "setting": "90 nmol/kg/d ip", "result": 15, "unit": "%"},
      {"measurement": "Insulin", "setting": "90 nmol/kg/d ip", "result": 1.3, "unit": "ng/mL"},
      {"measurement": "TG (blood triglyceride level)", "setting": "90 nmol/kg/d ip", "result": 22.5, "unit": "mg/dL"},
      {"measurement": "Weight (pre-treatment)", "setting": "90 nmol/kg/d ip", "result": 36.5, "unit": "g"},
      {"measurement": "Weight (termination)", "setting": "90 nmol/kg/d ip", "result": 34.0, "unit": "g"},
      {"measurement": "Blood glucose", "setting": "[1]", "result": "182 ± 17", "unit": "mg/dL"},
      {"measurement": "HOMA-IR", "setting": "[1]", "result": "15 ± 2"},
      {"measurement": "HOMA-IR decrease as compared to the control group", "setting": "[1]", "result": "(↓ 32%)"},
      {"measurement": "Insulin", "setting": "[1]", "result": "1.3 ± 0.1", "unit": "ng/mL"},
      {"measurement": "TG (blood triglyceride level)", "setting": "[1]", "result": "22.5 ± 6.0", "unit": "mg/dL"},
      {"measurement": "Weight (pre-treatment)", "setting": "[1]", "result": "36.5 ± 1.3", "unit": "g"},
      {"measurement": "Weight (termination)", "setting": "[1]", "result": "34.0 ± 1.0", "unit": "g"},
      {"measurement": "Blood glucose", "setting": "900 nmol/kg/d ip", "result": 212, "unit": "mg/dL"},
      {"measurement": "Delta body weight", "setting": "900 nmol/kg/d ip", "result": 7.1, "unit": "%"},
      {"measurement": "HOMA-IR", "setting": "900 nmol/kg/d ip", "result": 29},
      {"measurement": "HOMA-IR decrease as compared to the control group", "setting": "900 nmol/kg/d ip", "result": 29, "unit": "%"},
      {"measurement": "Insulin", "setting": "900 nmol/kg/d ip", "result": 2.2, "unit": "ng/mL"},
      {"measurement": "TG (blood triglyceride level)", "setting": "900 nmol/kg/d ip", "result": 38.0, "unit": "mg/dL"},
      {"measurement": "Weight (pre-treatment)", "setting": "900 nmol/kg/d ip", "result": 37.9, "unit": "g"},
      {"measurement": "Weight (termination)", "setting": "900 nmol/kg/d ip", "result": 36.0, "unit": "g"},
      {"measurement": "Blood glucose", "setting": "[2]", "result": "212 ± 11", "unit": "mg/dL"},
      {"measurement": "HOMA-IR", "setting": "[2]", "result": "29 ± 4"},
      {"measurement": "Insulin", "setting": "[2]", "result": "2.2 ± 0.3", "unit": "ng/mL"},
      {"measurement": "TG (blood triglyceride level)", "setting": "[2]", "result": "38.0 ± 12.5", "unit": "mg/dL"},
      {"measurement": "Weight (pre-treatment)", "setting": "[2]", "result": "37.9 ± 1.4", "unit": "g"},
      {"measurement": "Weight (termination)", "setting": "[2]", "result": "36.0 ± 1.2", "unit": "g"},
      {"measurement": "Blood glucose", "setting": "9000 nmol/kg/d ip", "result": 190, "unit": "mg/dL"},
      {"measurement": "Delta body weight", "setting": "9000 nmol/kg/d ip", "result": 6.7, "unit": "%"},
      {"measurement": "HOMA-IR", "setting": "9000 nmol/kg/d ip", "result": 16},
      {"measurement": "HOMA-IR decrease as compared to the control group", "setting": "9000 nmol/kg/d ip", "result": 27, "unit": "%"},
      {"measurement": "Insulin", "setting": "9000 nmol/kg/d ip", "result": 1.3, "unit": "ng/mL"},
      {"measurement": "TG (blood triglyceride level)", "setting": "9000 nmol/kg/d ip", "result": 18.5, "unit": "mg/dL"},
      {"measurement": "TG decrease from the control", "setting": "9000 nmol/kg/d ip", "result": 19, "unit": "%"},
      {"measurement": "Weight (pre-treatment)", "setting": "9000 nmol/kg/d ip", "result": 33.8, "unit": "g"},
      {"measurement": "Weight (termination)", "setting": "9000 nmol/kg/d ip", "result": 31.6, "unit": "g"},
      {"measurement": "Blood glucose", "setting": "[3]", "result": "190 ± 16", "unit": "mg/dL"},
      {"measurement": "HOMA-IR", "setting": "[3]", "result": "16 ± 4"},
      {"measurement": "HOMA-IR decrease as compared to the control group", "setting": "[3]", "result": "(↓ 27%)"},
      {"measurement": "Insulin", "setting": "[3]", "result": "1.3 ± 0.2", "unit": "ng/mL"},
      {"measurement": "TG (blood triglyceride level)", "setting": "[3]", "result": "18.5 ± 1.7", "unit": "mg/dL"},
      {"measurement": "TG decrease from the control", "setting": "[3]", "result": "(↓ 19%)"},
      {"measurement": "Weight (pre-treatment)", "setting": "[3]", "result": "33.8 ± 0.8", "unit": "g"},
      {"measurement": "Weight (termination)", "setting": "[3]", "result": "31.6 ± 0.7", "unit": "g"}
    ]}
  ]
}
